Assay [1] deals with human full-length cluster of differentiation 36 (CD36), glycosylated (human) (UniProt P16671). In words: MST; Cy5-labeled receptor (RED-NHS, lysines) at constant 20 nM, ligand in a 16-point 1:1 dilution series; exchange buffer (50 mM Hepes pH 7.5, 150 mM NaCl, 0.025% LMNG, 0.005% CHS); 25 °C, 40% MST power; apparent Kd, one-site specific binding; molar values from average molecular weights (267.5 kDa HDL, 3500 kDa oxLDL).

For assay [2], the target named is human full-length scavenger receptor class B type 1 (SR-B1), glycosylated (human) (UniProt Q8WTV0). The assay is described as above.
Sequence of human full-length scavenger receptor class B type 1 (SR-B1), glycosylated (human) (Q8WTV0 other isoform, or with tags, fused parts or gaps): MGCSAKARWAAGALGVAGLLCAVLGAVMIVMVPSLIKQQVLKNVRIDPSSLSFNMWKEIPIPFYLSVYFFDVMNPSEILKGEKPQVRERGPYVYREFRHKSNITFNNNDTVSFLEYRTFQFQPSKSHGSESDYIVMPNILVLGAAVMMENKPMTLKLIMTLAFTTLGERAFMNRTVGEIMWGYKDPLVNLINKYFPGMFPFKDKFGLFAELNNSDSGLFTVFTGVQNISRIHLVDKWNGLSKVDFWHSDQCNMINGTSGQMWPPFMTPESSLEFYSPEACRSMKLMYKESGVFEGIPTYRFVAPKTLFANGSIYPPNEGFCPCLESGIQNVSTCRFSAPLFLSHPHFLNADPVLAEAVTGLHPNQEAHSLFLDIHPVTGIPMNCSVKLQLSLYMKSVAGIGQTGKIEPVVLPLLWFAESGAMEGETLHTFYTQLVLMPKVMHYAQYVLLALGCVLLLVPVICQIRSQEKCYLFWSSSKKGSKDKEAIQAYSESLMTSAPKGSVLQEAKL
Assay [3] has the same target. Kind of assay: flow cytometry on cells; Sf9 cells 72 h after baculovirus infection, 10 μg/ml DiI-HDL or DiI-oxLDL in ESF 921/0.5% BSA for 90 min at 4 °C; MFI compared with cells infected with empty vector.
Assay [4] addresses human full-length cluster of differentiation 36 (CD36), glycosylated (human) (UniProt P16671). Described as above.

Sequence of human full-length cluster of differentiation 36 (CD36), glycosylated (human) (P16671 whole entry): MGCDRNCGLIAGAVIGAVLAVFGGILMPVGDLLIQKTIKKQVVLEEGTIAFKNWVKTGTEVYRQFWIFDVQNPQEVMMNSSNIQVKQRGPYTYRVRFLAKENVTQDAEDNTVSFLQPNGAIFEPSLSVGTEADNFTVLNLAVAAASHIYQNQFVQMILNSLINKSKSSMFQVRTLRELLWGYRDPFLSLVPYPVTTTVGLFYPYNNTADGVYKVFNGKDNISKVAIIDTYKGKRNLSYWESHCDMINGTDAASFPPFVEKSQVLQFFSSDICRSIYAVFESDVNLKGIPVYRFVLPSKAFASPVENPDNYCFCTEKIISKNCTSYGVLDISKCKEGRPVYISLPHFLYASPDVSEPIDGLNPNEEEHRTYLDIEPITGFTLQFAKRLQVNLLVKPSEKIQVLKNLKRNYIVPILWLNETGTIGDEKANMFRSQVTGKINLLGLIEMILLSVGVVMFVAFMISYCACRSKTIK
Sequence of human high-density lipoprotein (HDL), holoparticle (P02647 whole entry, looked up): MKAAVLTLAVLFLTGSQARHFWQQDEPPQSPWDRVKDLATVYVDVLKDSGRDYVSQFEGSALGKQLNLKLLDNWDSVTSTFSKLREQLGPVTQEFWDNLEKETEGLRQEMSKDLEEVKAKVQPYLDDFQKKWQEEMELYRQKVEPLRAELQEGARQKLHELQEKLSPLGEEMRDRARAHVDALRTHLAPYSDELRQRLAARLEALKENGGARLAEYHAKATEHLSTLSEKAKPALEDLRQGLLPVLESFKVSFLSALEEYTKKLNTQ
Sequence of DiI-labeled high-density lipoprotein (DiI-HDL) (P02647 whole entry, looked up): as above

Take “human high-density lipoprotein (HDL), holoparticle (from UniProt P02647 19-267) (complex)”: the Kd in assay [1] came to 0.123 µM; in assay [2] it was 0.194 µM.

Substance “DiI-labeled high-density lipoprotein (DiI-HDL) (from UniProt P02647 19-267) (complex)” gave a percent increase of DiI-HDL binding (MFI at 4 °C) against empty vector in assay [3] of 37%.

For “DiI-labeled oxidized low-density lipoprotein (DiI-oxLDL) (complex)”, in assay [4], the percent increase of DiI-oxLDL binding (MFI at 4 °C) against empty vector came out at 21%.

For the origin of these results see publication PMC10509710.
